Source: PMC5019376

B1: TIR1 (wild type, epitope-tagged, expressed in Nicotiana) [Arabidopsis] / GST-IAA3 [Arabidopsis] (parent)
chain 1: MQKRIALSFPEEVLEHVFSFIQLDKDRNSVSLVCKSWYEIERWCRRKVFIGNCYAVSPATVIRRFPKVRSVELKGKPHFADFNLVPDGWGGYVYPWIEAMSSSYTWLEEIRLKRMVVTDDCLELIAKSFKNFKVLVLSSCEGFSTDGLAAIAATCRNLKELDLRESDVDDVSGHWLSHFPDTYTSLVSLNISCLASEVSFSALERLVTRCPNLKSLKLNRAVPLEKLATLLQRAPQLEELGTGGYTAEVRPDVYSGLSVALSGCKELRCLSGFWDAVPAYLPAVYSVCSRLTTLNLSYATVQSYDLVKLLCQCPKLQRLWVLDYIEDAGLEVLASTCKDLRELRVFPSEPFVMEPNVALTEQGLVSVSMGCPKLESVLYFCRQMTNAALITIARNRPNMTRFRLCIIEPKAPDYLTLEPLDIGFGAIVEHCKDLRRLSLSGLLTDKVFEYIGTYAKKMEMLSVAFAGDSDLGMHHVLSGCDSLRKLEIRDCPFGDKALLANASKLETMRSLWMSSCSVSFGACKLLGQKMPKLNVEVIDERGAPDSRPESCPVERVFIYRTVAGPRFDMPGFVWNMDQDSTMRFSRQIITTNGL
chain 2: MDEFVNLKETELRLGLPGTDNVCEAKERVSCCNNNNKRVLSTDTEKEIESSSRKTETSPPRKAQIVGWPPVRSYRKNNIQSKKNESEHEGQGIYVKVSMDGAPYLRKIDLSCYKGYSELLKALEVMFKFSVGEYFERDGYKGSDFVPTYEDKDGDWMLIGDVPWEMFICTCKRLRIMKGSEAKGLGCGV

Variants of: B1
Test: pull-down (semi in vitro, GST-IAA3 with Nicotiana cell extracts, anti-HA blot)
Details: 10 µM 2,4-D

Row | ratio to parent | Variant
1 | 0.44 | chain 1 MQKRIALSFPEEVLEHVFSFIQLDKDRNSVSLVCKSWYEIERWCRRKVFIGNCYAVSPATVIRRFPKVRSVELKGKPHFADFNLVPDGWGGYVYPWIEAMSSSYTWLEEIRLKRMVATDDCLELIAKSFKNFKVLVLSSCEGFSTDGLAAIAATCRNLKELDLRESDVDDVSGHWLSHFPDTYTSLVSLNISCLASEVSFSALERLVTRCPNLKSLKLNRAVPLEKLATLLQRAPQLEELGTGGYTAEVRPDVYSGLSVALSGCKELRCLSGFWDAVPAYLPAVYSVCSRLTTLNLSYATVQSYDLVKLLCQCPKLQRLWVLDYIEDAGLEVLASTCKDLRELRVFPSEPFVMEPNVALTEQGLVSVSMGCPKLESVLYFCRQMTNAALITIARNRPNMTRFRLCIIEPKAPDYLTLEPLDIGFGAIVEHCKDLRRLSLSGLLTDKVFEYIGTYAKKMEMLSVAFAGDSDLGMHHVLSGCDSLRKLEIRDCPFGDKALLANASKLETMRSLWMSSCSVSFGACKLLGQKMPKLNVEVIDERGAPDSRPESCPVERVFIYRTVAGPRFDMPGFVWNMDQDSTMRFSRQIITTNGL [chain 1 V117A]
2 | 0.46 | chain 1 MQKRIALSFPEEVLEHVFSFIQLDKDRNSVSLVCKSWYEIERWCRRKVFIGNCYAVSPATVIRRFPKVRSVELKGKPHFADFNLVPDGWGGYVYPWIEAMSSSYTWLEEIRLKRMVVTDDCLELIAKSFKNFKVLVLSSCEGFSTDGLAAAAATCRNLKELDLRESDVDDVSGHWLSHFPDTYTSLVSLNISCLASEVSFSALERLVTRCPNLKSLKLNRAVPLEKLATLLQRAPQLEELGTGGYTAEVRPDVYSGLSVALSGCKELRCLSGFWDAVPAYLPAVYSVCSRLTTLNLSYATVQSYDLVKLLCQCPKLQRLWVLDYIEDAGLEVLASTCKDLRELRVFPSEPFVMEPNVALTEQGLVSVSMGCPKLESVLYFCRQMTNAALITIARNRPNMTRFRLCIIEPKAPDYLTLEPLDIGFGAIVEHCKDLRRLSLSGLLTDKVFEYIGTYAKKMEMLSVAFAGDSDLGMHHVLSGCDSLRKLEIRDCPFGDKALLANASKLETMRSLWMSSCSVSFGACKLLGQKMPKLNVEVIDERGAPDSRPESCPVERVFIYRTVAGPRFDMPGFVWNMDQDSTMRFSRQIITTNGL [chain 1 I151A]
3 | 0.62 | chain 1 MQKRIALSFPEEVLEHVFSFIQLDKDRNSVSLVCKSWYEIERWCRRKVFIGNCYAVSPATVIRRFPKVRSVELKGKPHFADFNLVPDGWGGYVYPWIEAMSSSYTWLEEIRLKRMVVTDDCLELIAKSFKNFKVLVLSSAEGFSTDGLAAIAATCRNLKELDLRESDVDDVSGHWLSHFPDTYTSLVSLNISCLASEVSFSALERLVTRCPNLKSLKLNRAVPLEKLATLLQRAPQLEELGTGGYTAEVRPDVYSGLSVALSGCKELRCLSGFWDAVPAYLPAVYSVCSRLTTLNLSYATVQSYDLVKLLCQCPKLQRLWVLDYIEDAGLEVLASTCKDLRELRVFPSEPFVMEPNVALTEQGLVSVSMGCPKLESVLYFCRQMTNAALITIARNRPNMTRFRLCIIEPKAPDYLTLEPLDIGFGAIVEHCKDLRRLSLSGLLTDKVFEYIGTYAKKMEMLSVAFAGDSDLGMHHVLSGCDSLRKLEIRDCPFGDKALLANASKLETMRSLWMSSCSVSFGACKLLGQKMPKLNVEVIDERGAPDSRPESCPVERVFIYRTVAGPRFDMPGFVWNMDQDSTMRFSRQIITTNGL [chain 1 C140A]
4 | 0.45 | chain 1 MQKRIALSFPEEVLEHVFSFIQLDKDRNSVSLVCKSWYEIERWCRRKVFIGNCYAVSPATVIRRFPKVRSVELKGKPHFADFNLVPDGWGGYVYPWIEAMSSSYTWLEEIRLKRMVVTDDCLELIAKSFKNFKVLVLSSCEAFSTDGLAAIAATCRNLKELDLRESDVDDVSGHWLSHFPDTYTSLVSLNISCLASEVSFSALERLVTRCPNLKSLKLNRAVPLEKLATLLQRAPQLEELGTGGYTAEVRPDVYSGLSVALSGCKELRCLSGFWDAVPAYLPAVYSVCSRLTTLNLSYATVQSYDLVKLLCQCPKLQRLWVLDYIEDAGLEVLASTCKDLRELRVFPSEPFVMEPNVALTEQGLVSVSMGCPKLESVLYFCRQMTNAALITIARNRPNMTRFRLCIIEPKAPDYLTLEPLDIGFGAIVEHCKDLRRLSLSGLLTDKVFEYIGTYAKKMEMLSVAFAGDSDLGMHHVLSGCDSLRKLEIRDCPFGDKALLANASKLETMRSLWMSSCSVSFGACKLLGQKMPKLNVEVIDERGAPDSRPESCPVERVFIYRTVAGPRFDMPGFVWNMDQDSTMRFSRQIITTNGL [chain 1 G142A]
5 | 0.5 | chain 1 MQKRIALSFPEEVLEHVFSFIQLDKDRNSVSLVCKSWYEIERWCRRKVFIGNCYAVSPATVIRRFPKVRSVELKGKPHFADFNLVPDGWGGYVYPWIEAMSSSYTWLEEIRLKRMVVTDDCLELIAKSFKNFKVLVLSSCEGASTDGLAAIAATCRNLKELDLRESDVDDVSGHWLSHFPDTYTSLVSLNISCLASEVSFSALERLVTRCPNLKSLKLNRAVPLEKLATLLQRAPQLEELGTGGYTAEVRPDVYSGLSVALSGCKELRCLSGFWDAVPAYLPAVYSVCSRLTTLNLSYATVQSYDLVKLLCQCPKLQRLWVLDYIEDAGLEVLASTCKDLRELRVFPSEPFVMEPNVALTEQGLVSVSMGCPKLESVLYFCRQMTNAALITIARNRPNMTRFRLCIIEPKAPDYLTLEPLDIGFGAIVEHCKDLRRLSLSGLLTDKVFEYIGTYAKKMEMLSVAFAGDSDLGMHHVLSGCDSLRKLEIRDCPFGDKALLANASKLETMRSLWMSSCSVSFGACKLLGQKMPKLNVEVIDERGAPDSRPESCPVERVFIYRTVAGPRFDMPGFVWNMDQDSTMRFSRQIITTNGL [chain 1 F143A]
